This assay has as its target domain 4 of the anthrax protective antigen (Bacillus anthracis) (UniProt P13423). In words: cross-linking.
In turn, M18 scFv with L-DOPA at position H_D54 yielded an Experimental Crosslinking (%) of 30.4%. Then M18 scFv with L-DOPA at position H_D56, with 36.2%; and M18 scFv with L-DOPA at position H_G53, with 40.3%; and M18 scFv with L-DOPA at position H_G55, with 5.1%.

As to M18 scFv with L-DOPA at position H_N58, the Experimental Crosslinking (%) came out at 24.4%. In the case of M18 scFv with L-DOPA at position H_S31 it was 51.9%; in that of M18 scFv with L-DOPA at position H_W33, 13.9%. In the case of M18 scFv with L-DOPA at position H_Y52 it was 19.7%.
